Measurements: article PMC6915604

Molecular target: β-glucosidase with N-terminal K-coil and N-terminal His-tag (KG)

retention rate of relative enzyme activity of the KG-HE complex recovered in a magnetic field, after usage cycles 1 to 3 (93.8%, 82.5%, 56.3%); pH 4.5, 45 °C, 20 min: 93.8%
Substance: human H chain ferritin with C-terminal E-coil, without the sequence of a His-tag (HE)
